# According to publication PMC4769699 (Environmental microbiology reports, 2015):
# B1: AmrZ1-66 (AmrZ without the C-terminal domain) (domain or fragment)
# chain: MRPLKQATPTYSSRTADKFVVRLPEGMREQIAEVARSHHRSMNSEIIARLEQSLLQEGALQDNLGV
# Target: the molecule itself
# Experiment: native MS
protein,measurement,value
B1,stoichiometry N,2
